Assays:
[1] = molecular target: K1735 M4 tumor cells (melanoma cells); experiment: adhesion of 3H-thymidine-labelled K1735 M4 cells to peptide-coated Immulon plates, 1 h at 37 °C
[2] = molecular target: K1735 M4 tumor cells (melanoma cells); experiment: adhesion of 3H-thymidine-labelled K1735 M4 cells to peptide-coated Immulon plates, 1 h at 37 °C; one mole of SSP counted as three chains

| Molecule | peptide concentration at half maximal melanoma cell adhesion [1] | peptide concentration at half maximal melanoma cell adhesion [2] |
| --- | --- | --- |
| THP-2, branched triple-helical polypeptide incorporating residues 1263-1277 from α1(IV) collagen | 1.12 µM | – |
| THP-3, branched triple-helical polypeptide of (Gly-Pro-Hyp)8 | > 100 µM | – |
| GVKGDKGNPGWPGAP [single-stranded peptide (SSP) incorporating residues 1263-1277 from the α1 chain of type IV collagen] | – | 170 µM |
